The results in this text go back to US20170240595.

Bridges are numbered along the chain shown (N, C = ends). Where no end group is shown, it is not given here. [ ]: non-standard residue; d: D form. 1Nal = N[C@@H](Cc1cccc2ccccc12)C(=O)O; 2Nal = N[C@@H](Cc1ccc2ccccc2c1)C(=O)O; d2Nal = N[C@H](Cc1ccc2ccccc2c1)C(=O)O; hPhe = N[C@@H](CCc1ccccc1)C(=O)O; Cha = N[C@@H](CC1CCCCC1)C(=O)O; dCha = N[C@H](CC1CCCCC1)C(=O)O; dTle = CC(C)(C)[C@@H](N)C(=O)O; Nle = CCCC[C@H](N)C(=O)O; Apn = not defined here; Bal = not defined here; Ahx = NCCCCCC(=O)O; GABA = NCCCC(=O)O; βAla = NCCC(=O)O

In this assay the target is hMC4-R (human), P32245. Kind of assay: competition. The note with it: modification not given.
Sequence of hMC4-R (human), P32245 (P32245 whole entry): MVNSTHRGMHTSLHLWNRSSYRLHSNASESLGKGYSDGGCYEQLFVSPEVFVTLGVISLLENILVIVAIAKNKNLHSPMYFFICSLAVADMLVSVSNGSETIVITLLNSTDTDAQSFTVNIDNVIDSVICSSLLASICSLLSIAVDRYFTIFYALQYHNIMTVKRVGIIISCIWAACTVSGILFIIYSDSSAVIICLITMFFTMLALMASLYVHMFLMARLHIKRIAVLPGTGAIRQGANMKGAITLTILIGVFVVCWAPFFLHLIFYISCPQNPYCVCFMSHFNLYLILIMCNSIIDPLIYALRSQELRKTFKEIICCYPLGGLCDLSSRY

B1: Ac-c(Cys-D-Ala-His-D-Phe-Arg-2-Nal-Ala-Cys)-NH2 (peptide)
chain: Ac-C[dA]H[dF]R[2Nal]AC-NH2
modifications: disulfide 1-8
SMILES: CC(=O)N[C@H]1CSSC[C@@H](C(N)=O)NC(=O)[C@H](C)NC(=O)[C@H](Cc2ccc3ccccc3c2)NC(=O)[C@H](CCCNC(=N)N)NC(=O)[C@@H](Cc2ccccc2)NC(=O)[C@H](Cc2c[nH]cn2)NC(=O)[C@@H](C)NC1=O
In turn, B1 gave a Ki of 40.7 nM.

B2: Ac-Nle-c(Cys-D-Ala-His-D-2-Nal-Arg-Bal-Cys)-NH2 (peptide)
chain: Ac-[Nle]C[dA]H[d2Nal]R[Bal]C-NH2
modifications: disulfide 2-8; reading uncertain
B2 returned a Ki of 16.6 nM.

B3: Ac-Nle-c(Cys-His-D-2-Nal-Arg-Trp-Gaba-Cys)-NH2 (peptide)
chain: Ac-[Nle]CH[d2Nal]RW[GABA]C-NH2
modifications: disulfide 2-8
For B3, the Ki turned out to be 0.375 nM.

B4: Ac-Nle-c(Cys-His-D-Phe-Arg-Trp-Ahx-Cys)-NH2 (peptide)
chain: Ac-[Nle]CH[dF]RW[Ahx]C-NH2
modifications: disulfide 2-8
SMILES: CCCC[C@H](NC(C)=O)C(=O)N[C@H]1CSSC[C@@H](C(N)=O)NC(=O)CCCCCNC(=O)[C@H](Cc2c[nH]c3ccccc23)NC(=O)[C@H](CCCNC(=N)N)NC(=O)[C@@H](Cc2ccccc2)NC(=O)[C@H](Cc2c[nH]cn2)NC1=O
Take B4: the Ki is 1.23 nM.

B5: Nle-c(Cys-His-D-Phe-Arg-Trp-Apn-Cys)-NH2 (peptide)
chain: [Nle]CH[dF]RW[Apn]C-NH2
modifications: disulfide 2-8; reading uncertain
B5 showed a Ki of 0.85 nM.

B6: Ac-2-Nal-c(Cys-His-D-Phe-Arg-Trp-Gaba-Cys)-NH2 (peptide)
chain: Ac-[2Nal]CH[dF]RW[GABA]C-NH2
modifications: disulfide 2-8
SMILES: CC(=O)N[C@@H](Cc1ccc2ccccc2c1)C(=O)N[C@H]1CSSC[C@@H](C(N)=O)NC(=O)CCCNC(=O)[C@H](Cc2c[nH]c3ccccc23)NC(=O)[C@H](CCCNC(=N)N)NC(=O)[C@@H](Cc2ccccc2)NC(=O)[C@H](Cc2c[nH]cn2)NC1=O
In the case of B6, the Ki came out at 2.94 nM.

B7: Ac-Nle-c(Cys-His-D-2-Nal-Arg-Trp-Ahx-Cys)-NH2 (peptide)
chain: Ac-[Nle]CH[d2Nal]RW[Ahx]C-NH2
modifications: disulfide 2-8
As for B7, the Ki amounted to 0.998 nM.

B8: Ac-Nle-c(Cys-D-Val-His-D-Phe-Arg-Trp-Cys)-NH2 (peptide)
chain: Ac-[Nle]C[dV]H[dF]RWC-NH2
modifications: disulfide 2-8
With B8, the Ki was 10.1 nM.

B9: Ac-Nle-c(Cys-D-Ala-His-D-2-Nal-Arg-2-Nal-Cys)-NH2 (peptide)
chain: Ac-[Nle]C[dA]H[d2Nal]R[2Nal]C-NH2
modifications: disulfide 2-8
SMILES: CCCC[C@H](NC(C)=O)C(=O)N[C@H]1CSSC[C@@H](C(N)=O)NC(=O)[C@H](Cc2ccc3ccccc3c2)NC(=O)[C@H](CCCNC(=N)N)NC(=O)[C@@H](Cc2ccc3ccccc3c2)NC(=O)[C@H](Cc2c[nH]cn2)NC(=O)[C@@H](C)NC1=O
B9 came in with a Ki of 2.53 nM.

B10: Ac-Nle-c(Cys-D-Ala-His-D-2-Nal-Arg-1-Nal-Cys)-NH2 (peptide)
chain: Ac-[Nle]C[dA]H[d2Nal]R[1Nal]C-NH2
modifications: disulfide 2-8
SMILES: CCCC[C@H](NC(C)=O)C(=O)N[C@H]1CSSC[C@@H](C(N)=O)NC(=O)[C@H](Cc2cccc3ccccc23)NC(=O)[C@H](CCCNC(=N)N)NC(=O)[C@@H](Cc2ccc3ccccc3c2)NC(=O)[C@H](Cc2c[nH]cn2)NC(=O)[C@@H](C)NC1=O
Turning to B10, the Ki worked out at 3.07 nM.

B11: Ac-Nle-c(Asp-His-D-Phe-Arg-Trp-β-Ala-Lys)-NH2 (peptide)
chain: Ac-[Nle]DH[dF]RW[βAla]K-NH2
modifications: lactam 2-8
SMILES: CCCC[C@H](NC(C)=O)C(=O)N[C@H]1CC(=O)NCCCC[C@@H](C(N)=O)NC(=O)CCNC(=O)[C@H](Cc2c[nH]c3ccccc23)NC(=O)[C@H](CCCNC(=N)N)NC(=O)[C@@H](Cc2ccccc2)NC(=O)[C@H](Cc2c[nH]cn2)NC1=O
B11: the Ki was 0.617 nM.

B12: Ac-Nle-c(Asp-His-D-Phe-Arg-Trp-Gaba-Lys)-NH2 (peptide)
chain: Ac-[Nle]DH[dF]RW[GABA]K-NH2
modifications: lactam 2-8
B12 registered a Ki of 1.04 nM.

B13: Ac-Nle-c(Asp-His-D-Phe-Arg-Trp-Apn-Lys)-NH2 (peptide)
chain: Ac-[Nle]DH[dF]RW[Apn]K-NH2
modifications: lactam 2-8; reading uncertain
Regarding B13, the Ki was 11.1 nM.

B14: Ac-hPhe-c(Asp-His-D-2-Nal-Arg-Trp-Gaba-Lys)-NH2 (peptide)
chain: Ac-[hPhe]DH[d2Nal]RW[GABA]K-NH2
modifications: lactam 2-8
B14 returned a Ki of 0.931 nM.

B15: Ac-Cha-c(Cys-His-D-Phe-Arg-Trp-Gaba-Cys)-NH2 (peptide)
chain: Ac-[Cha]CH[dF]RW[GABA]C-NH2
modifications: disulfide 2-8
SMILES: CC(=O)N[C@@H](CC1CCCCC1)C(=O)N[C@H]1CSSC[C@@H](C(N)=O)NC(=O)CCCNC(=O)[C@H](Cc2c[nH]c3ccccc23)NC(=O)[C@H](CCCNC(=N)N)NC(=O)[C@@H](Cc2ccccc2)NC(=O)[C@H](Cc2c[nH]cn2)NC1=O
For B15, the Ki turned out to be 0.884 nM.

B16: Ac-Nle-c(Cys-D-Leu-His-D-Phe-Arg-Trp-Cys)-NH2 (peptide)
chain: Ac-[Nle]C[dL]H[dF]RWC-NH2
modifications: disulfide 2-8
SMILES: CCCC[C@H](NC(C)=O)C(=O)N[C@H]1CSSC[C@@H](C(N)=O)NC(=O)[C@H](Cc2c[nH]c3ccccc23)NC(=O)[C@H](CCCNC(=N)N)NC(=O)[C@@H](Cc2ccccc2)NC(=O)[C@H](Cc2c[nH]cn2)NC(=O)[C@@H](CC(C)C)NC1=O
Regarding B16, the Ki came out at 4.13 nM.

B17: Ac-Nle-c(Cys-D-Ile-His-D-Phe-Arg-Trp-Cys)-NH2 (peptide)
chain: Ac-[Nle]C[dI]H[dF]RWC-NH2
modifications: disulfide 2-8
Molecule B17 showed a Ki of 9 nM.

B18: Ac-hPhe-c(Asp-His-D-Phe-Arg-Trp-Gaba-Lys)-NH2 (peptide)
chain: Ac-[hPhe]DH[dF]RW[GABA]K-NH2
modifications: lactam 2-8
B18 had a Ki of 3.37 nM.

B19: Ac-Nle-c(Cys-D-Tle-His-D-Phe-Arg-Trp-Cys)-NH2 (peptide)
chain: Ac-[Nle]C[dTle]H[dF]RWC-NH2
modifications: disulfide 2-8
B19 showed a Ki of 11.2 nM.

B20: Ac-Nle-c(Cys-D-Cha-His-D-Phe-Arg-Trp-Cys)-NH2 (peptide)
chain: Ac-[Nle]C[dCha]H[dF]RWC-NH2
modifications: disulfide 2-8
SMILES: CCCC[C@H](NC(C)=O)C(=O)N[C@H]1CSSC[C@@H](C(N)=O)NC(=O)[C@H](Cc2c[nH]c3ccccc23)NC(=O)[C@H](CCCNC(=N)N)NC(=O)[C@@H](Cc2ccccc2)NC(=O)[C@H](Cc2c[nH]cn2)NC(=O)[C@@H](CC2CCCCC2)NC1=O
Take B20: the Ki stood at 1.41 nM.

B21: Nle-c(Cys-His-D-Phe-Arg-Trp-Gaba-Cys)-NH2 (peptide)
chain: [Nle]CH[dF]RW[GABA]C-NH2
modifications: disulfide 2-8
B21: the Ki was found to be 0.47 nM.

B22: Ac-Nle-c(Cys-His-D-Phe-Arg-Trp-Apn-Cys)-NH2 (peptide)
chain: Ac-[Nle]CH[dF]RW[Apn]C-NH2
modifications: disulfide 2-8; reading uncertain
Consider B22, for which the Ki was determined as 0.894 nM.

B23: Ac-Cha-c(Asp-His-D-2-Nal-Arg-Trp-Gaba-Lys)-NH2 (peptide)
chain: Ac-[Cha]DH[d2Nal]RW[GABA]K-NH2
modifications: lactam 2-8
SMILES: CC(=O)N[C@@H](CC1CCCCC1)C(=O)N[C@H]1CC(=O)NCCCC[C@@H](C(N)=O)NC(=O)CCCNC(=O)[C@H](Cc2c[nH]c3ccccc23)NC(=O)[C@H](CCCNC(=N)N)NC(=O)[C@@H](Cc2ccc3ccccc3c2)NC(=O)[C@H](Cc2c[nH]cn2)NC1=O
Molecule B23 showed a Ki of 2.82 nM.

What is called Ki is a dissociation constant, usually derived from enzyme kinetics or from competition with a known ligand. A high value points to lower affinity.
